{
  "source": "paper PMC8704484",
  "key": {"BLM-core helicase [1]": {"target": "T1, BLM-core helicase (human, UniProt P54132 642-1290)", "T1 sequence (P54132 642-1290)": "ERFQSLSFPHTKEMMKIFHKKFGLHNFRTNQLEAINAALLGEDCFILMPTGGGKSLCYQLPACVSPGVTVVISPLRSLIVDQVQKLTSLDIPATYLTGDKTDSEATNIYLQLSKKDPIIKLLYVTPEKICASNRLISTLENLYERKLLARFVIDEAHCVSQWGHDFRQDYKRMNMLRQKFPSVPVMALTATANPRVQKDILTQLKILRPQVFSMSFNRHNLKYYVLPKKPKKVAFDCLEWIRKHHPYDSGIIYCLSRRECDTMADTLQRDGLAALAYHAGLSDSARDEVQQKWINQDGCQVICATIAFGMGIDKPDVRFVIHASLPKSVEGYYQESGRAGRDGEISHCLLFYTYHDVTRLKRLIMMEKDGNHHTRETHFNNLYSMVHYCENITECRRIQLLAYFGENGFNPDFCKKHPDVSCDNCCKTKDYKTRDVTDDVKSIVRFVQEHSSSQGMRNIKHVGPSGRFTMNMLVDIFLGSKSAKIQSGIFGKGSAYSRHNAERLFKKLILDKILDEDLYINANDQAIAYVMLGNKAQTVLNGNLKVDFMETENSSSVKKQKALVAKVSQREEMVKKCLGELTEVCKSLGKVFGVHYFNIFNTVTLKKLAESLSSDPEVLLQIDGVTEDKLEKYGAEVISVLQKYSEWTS", "experiment": "fluorescence anisotropy"}, "[2]": {"target": "RPA (RPA1-RPA2-RPA3 heterotrimer) (human, UniProt P27694;P15927;P35244 1-616;1-270;1-121)", "sequence (P27694 whole entry, chain 1 of 3)": "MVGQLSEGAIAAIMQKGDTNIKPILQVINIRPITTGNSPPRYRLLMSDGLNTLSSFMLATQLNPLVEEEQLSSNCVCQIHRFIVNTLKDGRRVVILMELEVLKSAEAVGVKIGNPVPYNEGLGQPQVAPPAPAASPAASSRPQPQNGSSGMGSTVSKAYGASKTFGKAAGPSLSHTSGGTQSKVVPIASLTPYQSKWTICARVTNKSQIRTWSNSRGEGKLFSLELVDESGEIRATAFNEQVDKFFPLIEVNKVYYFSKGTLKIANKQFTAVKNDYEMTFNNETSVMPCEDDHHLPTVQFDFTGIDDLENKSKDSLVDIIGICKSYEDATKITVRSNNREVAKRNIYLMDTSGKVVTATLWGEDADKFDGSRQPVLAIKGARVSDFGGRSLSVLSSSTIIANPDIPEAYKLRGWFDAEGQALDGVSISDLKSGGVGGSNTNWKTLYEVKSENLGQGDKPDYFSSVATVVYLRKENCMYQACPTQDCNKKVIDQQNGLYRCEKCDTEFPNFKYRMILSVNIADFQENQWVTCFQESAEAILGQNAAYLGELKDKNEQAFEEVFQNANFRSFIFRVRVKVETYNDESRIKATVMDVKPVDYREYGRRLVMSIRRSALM", "sequence (P15927 whole entry, chain 2 of 3)": "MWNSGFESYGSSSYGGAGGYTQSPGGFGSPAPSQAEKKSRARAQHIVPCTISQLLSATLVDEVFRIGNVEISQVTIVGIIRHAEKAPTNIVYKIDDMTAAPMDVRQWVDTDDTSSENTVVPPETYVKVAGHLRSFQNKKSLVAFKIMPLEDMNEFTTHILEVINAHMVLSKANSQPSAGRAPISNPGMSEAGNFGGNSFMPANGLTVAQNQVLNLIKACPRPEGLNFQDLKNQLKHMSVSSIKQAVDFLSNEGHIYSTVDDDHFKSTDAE", "sequence (P35244 whole entry, chain 3 of 3)": "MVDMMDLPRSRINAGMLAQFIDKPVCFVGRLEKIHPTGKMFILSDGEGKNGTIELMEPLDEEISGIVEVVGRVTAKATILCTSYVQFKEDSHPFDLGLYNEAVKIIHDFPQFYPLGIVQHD", "experiment": "smFRET"}, "Rep helicase [3]": {"target": "T2, Rep helicase (E. coli, UniProt P09980 1-673)", "T2 sequence (P09980 whole entry)": "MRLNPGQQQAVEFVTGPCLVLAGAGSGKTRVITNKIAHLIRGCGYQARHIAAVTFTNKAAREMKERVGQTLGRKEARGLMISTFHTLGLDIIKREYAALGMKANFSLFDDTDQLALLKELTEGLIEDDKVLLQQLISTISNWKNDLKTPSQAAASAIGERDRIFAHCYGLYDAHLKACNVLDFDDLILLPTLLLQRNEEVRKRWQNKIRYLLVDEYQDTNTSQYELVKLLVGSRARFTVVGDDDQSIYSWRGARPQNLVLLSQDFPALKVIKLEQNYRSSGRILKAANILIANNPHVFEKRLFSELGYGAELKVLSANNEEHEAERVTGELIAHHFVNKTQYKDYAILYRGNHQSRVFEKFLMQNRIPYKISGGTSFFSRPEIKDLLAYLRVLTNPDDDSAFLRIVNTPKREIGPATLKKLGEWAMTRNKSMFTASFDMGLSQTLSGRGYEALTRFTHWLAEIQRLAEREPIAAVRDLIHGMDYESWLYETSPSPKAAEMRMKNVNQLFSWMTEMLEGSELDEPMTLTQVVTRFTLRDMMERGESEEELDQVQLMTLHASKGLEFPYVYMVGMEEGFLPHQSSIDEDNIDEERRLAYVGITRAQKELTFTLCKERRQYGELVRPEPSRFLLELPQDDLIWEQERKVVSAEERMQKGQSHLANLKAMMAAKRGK", "experiment": "smFRET"}, "RecQ helicase [4]": {"target": "T3, RecQ helicase (E. coli, UniProt P15043 1-609)", "T3 sequence (P15043 whole entry)": "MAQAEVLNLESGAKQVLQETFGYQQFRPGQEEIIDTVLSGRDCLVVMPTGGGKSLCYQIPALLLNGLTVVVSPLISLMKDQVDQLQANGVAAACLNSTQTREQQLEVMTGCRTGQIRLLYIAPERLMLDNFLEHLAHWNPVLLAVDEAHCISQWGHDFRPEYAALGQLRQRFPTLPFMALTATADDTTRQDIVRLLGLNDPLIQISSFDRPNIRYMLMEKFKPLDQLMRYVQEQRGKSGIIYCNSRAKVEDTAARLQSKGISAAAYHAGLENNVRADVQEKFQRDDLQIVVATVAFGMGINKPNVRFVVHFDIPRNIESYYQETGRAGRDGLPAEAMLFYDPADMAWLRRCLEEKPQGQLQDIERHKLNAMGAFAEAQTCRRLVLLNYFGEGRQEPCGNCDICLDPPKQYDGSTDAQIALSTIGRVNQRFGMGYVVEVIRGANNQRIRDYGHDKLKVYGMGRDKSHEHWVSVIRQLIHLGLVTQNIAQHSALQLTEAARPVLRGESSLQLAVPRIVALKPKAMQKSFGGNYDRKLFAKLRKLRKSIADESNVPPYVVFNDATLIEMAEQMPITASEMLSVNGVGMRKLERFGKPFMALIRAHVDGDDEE", "experiment": "smFRET"}, "DHX36 [5]": {"target": "T4, DHX36 (Bos, UniProt Q05B79 1-1010)", "T4 sequence": "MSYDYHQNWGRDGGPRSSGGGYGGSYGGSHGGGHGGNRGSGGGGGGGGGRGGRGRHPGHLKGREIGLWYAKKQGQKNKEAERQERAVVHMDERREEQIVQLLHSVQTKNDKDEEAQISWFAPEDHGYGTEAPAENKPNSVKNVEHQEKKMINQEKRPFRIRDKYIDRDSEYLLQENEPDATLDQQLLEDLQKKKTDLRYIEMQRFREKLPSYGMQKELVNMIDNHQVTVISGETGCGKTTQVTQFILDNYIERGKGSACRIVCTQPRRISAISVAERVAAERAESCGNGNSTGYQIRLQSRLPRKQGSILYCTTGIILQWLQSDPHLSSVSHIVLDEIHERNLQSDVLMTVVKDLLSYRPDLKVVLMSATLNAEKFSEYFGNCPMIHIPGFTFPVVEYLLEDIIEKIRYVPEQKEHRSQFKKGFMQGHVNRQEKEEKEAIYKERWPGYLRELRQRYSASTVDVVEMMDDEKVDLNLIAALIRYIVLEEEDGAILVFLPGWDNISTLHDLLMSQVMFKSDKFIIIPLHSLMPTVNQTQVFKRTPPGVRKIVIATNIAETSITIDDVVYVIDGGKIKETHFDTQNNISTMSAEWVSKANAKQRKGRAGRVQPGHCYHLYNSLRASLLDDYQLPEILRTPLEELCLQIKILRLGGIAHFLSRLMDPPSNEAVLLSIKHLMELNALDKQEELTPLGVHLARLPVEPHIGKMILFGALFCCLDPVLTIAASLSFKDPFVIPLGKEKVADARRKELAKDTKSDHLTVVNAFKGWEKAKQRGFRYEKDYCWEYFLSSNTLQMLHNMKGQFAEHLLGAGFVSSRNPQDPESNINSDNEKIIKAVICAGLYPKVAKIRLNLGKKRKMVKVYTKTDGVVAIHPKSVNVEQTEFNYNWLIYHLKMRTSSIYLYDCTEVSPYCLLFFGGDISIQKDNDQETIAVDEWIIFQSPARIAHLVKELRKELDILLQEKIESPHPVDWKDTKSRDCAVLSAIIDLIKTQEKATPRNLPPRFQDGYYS", "experiment": "smFRET"}, "BLM-core helicase [6]": {"target": "T1, BLM-core helicase", "experiment": "smFRET"}, "Rep helicase [7]": {"target": "T2, Rep helicase", "experiment": "fluorescence anisotropy"}, "RecQ helicase [8]": {"target": "T3, RecQ helicase", "experiment": "fluorescence anisotropy"}, "DHX36 [9]": {"target": "T4, DHX36", "experiment": "fluorescence anisotropy"}},
  "data": [
    {"binder": "Duplex (24nt-F/24nt) (dsDNA) DNA 1: GCCCTGGTGCCGACCAACGAAGGT DNA 2: ACCTTCGTTGGTCGGCACCAGGGC", "values": [
      {"measurement": "binding result", "setting": "BLM-core helicase [1]", "value": "no binding"}
    ]},
    {"binder": "d27Bcl2-Mut / Stem (mixed) DNA 1: GCGTGGCACCGGTAATAGGAAATAGGATTCTCTCTCTCTTCCTCTCTCGCTC DNA 2: TCCTATTTCCTATTACCGGTGCCACGC", "values": [
      {"measurement": "binding result", "setting": "[2]", "value": "binds"}
    ]},
    {"binder": "d27Bcl2-IM / Stem (no loading tail) (mixed) DNA 1: GCGTGGCACCGGTAATAGGAAATAGGATTCCCGCCCCCTTCCTCCCGCGCCCT DNA 2: TCCTATTTCCTATTACCGGTGCCACGC", "values": [
      {"measurement": "binding result", "setting": "Rep helicase [3]", "value": "binds"},
      {"measurement": "binding result", "setting": "RecQ helicase [4]", "value": "binds"},
      {"measurement": "binding result", "setting": "DHX36 [5]", "value": "binds"},
      {"measurement": "binding result", "setting": "BLM-core helicase [6]", "value": "binds"}
    ]},
    {"binder": "CCCGCCCCCTTCCTCCCGCGCCC (structured_DNA)", "note": "[F-Bcl2-IM]", "values": [
      {"measurement": "Kd", "setting": "BLM-core helicase [1]", "value": 22, "unit": "nM"},
      {"measurement": "binding result", "setting": "Rep helicase [7]", "value": "binds"},
      {"measurement": "binding result", "setting": "RecQ helicase [8]", "value": "binds"},
      {"measurement": "binding result", "setting": "DHX36 [9]", "value": "binds"}
    ]},
    {"binder": "GGGCGCGGGAGGAAGGGGGCGGG (structured_DNA)", "note": "[F-Bcl2-G4]", "values": [
      {"measurement": "Kd", "setting": "BLM-core helicase [1]", "value": 97.7, "unit": "nM"}
    ]}
  ]
}
